Drawing on a protein production outcome set (Wang et al. 2014), this text covers protein production for twelve sequences.

The nature of the series: label from the status in PepcDB records.

For “MFVHTKTKKKRKWQRKVFLLLLLFLLPIVSVLAFIVLFIGGGTAESHDVEATTGGVKLSAKQFADKTKLGISEEEAKNALAFADRLMSRHHFTAQATAGVLAVGFRESGFDVKAVNNSGGVAGFFQWSGWGSSVNGDRWKVASKRELTLEVEVDLMSTELDGRYADVVKKVGSATDEKQAAKDWSQYYEGVAVSDGQTKADKIESWATTICEALKSGGTNYAKVNNTGTSSTAIPQGWENISAFDGHAYEGSENYPQGQCTWYVYNRAKQLGVSFSPYMGNGGQWYQVQGYHSSHTPKAHTALSFVNGQAGSDPTYGHVAFVEAVKDDGSILISEMNVYGQPAMTVAYRTFDAETAKQFWYVEGK”, the protein production entry is recorded as “failed”. The result for “MFWIVLIVILLLALAGLFFVRAQSEREWMREVSAWQEKKGEKQAELPEIKDGMPDFPEFSLMLFHAVKTAVYWLFVGVVRFCRNYLAHESEPDRPVPPASANRADVPTASDGYSDSGNGTEEAETEAAEAAEEEAADTEDIATAVIDNRRIPFDRSIAEGLMQSESKTSPVRPVFKEITLEEATRALSSAALRETKKRYIDAFEKNGTAVPKVRVSDTPMEGLQIIGLDDPVLQRTYSRMFDADKEAFSESADYGFEPYFEKQHPSAFSAVKAENARNAPFRRHAGQEKGQAEAKSPDVSQGQSVSDGTAVRDARRRVSVNLKEPNKATVSAEARISRLIPESRTVVGKRDVEMPSETENVFTETVSSVGYGGPVYDEAADIHIEEPAAPDAWVVEPPEVPEVAVPEIDILPPPPVSEIYNRTYEPPAGFEQAQRSRIAETDHLAADVLNGGWQEETAAIADDGSEGAAERSSGQYLSETEAFGHDSQAVCPFEDVPSERPSCRVSDTEADEGAFQSEETGAVSEHLPTTDLLLPPLFNPEATQTEEELLENSITIEEKLAEFKVKVKVVDSYSGPVITRYEIEPDVGVRGNSVLNLEKDLARSLGVASIRVVETIPGKTCMGLELPNPKRQMIRLSEIFNSPEFAESKSKLTLALGQDITGQPVVTDLGKAPHLLVAGTTGSGKSVGVNAMILSMLFKAAPEDVRMIMIDPKMLELSIYEGITHLLAPVVTDMKLAANALNWCVNEMEKRYRLMSFMGVRNLAGFNQKIAEAAARGEKIGNPFSLTPDDPEPLEKLPFIVVVVDEFADLMMTAGKKIEELIARLAQKARAAGIHLILATQRPSVDVITGLIKANIPTRIAFQVSSKIDSRTILDQMGAENLLGQGDMLFLPPGTAYPQRVHGAFASDEEVHRVVEYLKQFGEPDYVDDILSGGGSEELPGIGRSGDGETDPMYDEAVSVVLKTRKASISGVQRALRIGYNRAARLIDQMEAEGIVSAPEHNGNRTILVPLDNA” reads “failed”. Then “MFYHDFRTMLIRLRAQFIKELLCILRDPRNRVVVFVPPLMQLLIFSYAATMEVRNLDIAVYNQDTGRAAQELVWHLEAARFIAQVHHVHSNTALREQLVQGKVIAAIAIPADFSRTVAVSGSGHAQVLVDGRRSNSGQIVVGYLSSIARDIRFTADTAPIPETSVTVRHWFNPNLVYLWFMVPGLTGTLAFFSALMITALSIARERELGTFDQLLVSPASTLEIILSKSLPALVISSLLALLMITLAIWFFRIPFTGSFGLLLIGLVLFILSAVGIGLVISAISMTQQQAILGGFVIGVPTVLISGFATPVENMPLLLQWLAQAIPLTHFLIIIEGCFLKALPPRDVLANLWPLAVIAFTMLPIAMIFARSRLQ”, with “failed”; and “MGAAGGGWRMSERHLRRSTHKVGDVTLGPVHRLSCHCGAVQIDLDLPHGLLDPRRCDCSMCRRRGAIVASVSLDGLHVLQGEDVLRLYQFNTQTAAHYFCGVCGIYTHHRRRSNPNEYGYNVGCLEGVNPYALNIAVPVEDGVNHPADRVTAAS”, with “failed”. As to “MGACVCRMNPDNETMSVSSASISRPASAGIAMGAARKNRPLCHETIRWRSDVPLTEGQLRSKRDEFWDTAPAFDGRKEIWDALRAATTAAEGLDFQMAQAILDGANVSVPNGYLTECYDELGTQYKVPIYCLSYPINIVKEENGRDSPAEYSEPVDGGTDIFLKLRISSTMTDVKLPVYSKDTVGQCKKKLQAAEGVDACCQRWFYSGKLLGDKVPIDECSIHQGYVVQVIVNTEHYNHDNSTSTAHAS”, the protein production result is reported as “failed”. The result for “MGAIQFQTAPKLPVTVLLAAKNEAVNLPRCLAALGPAERVIVLDSHSTDATAEIARQHGAEVAQFDYRGGYPKKRQWALDTIPFGTPWILLLDADEVVPEDLWKEIGNVTRQPDADAYLITKGFHFLGRKFKHGGFSHSAVLLFKTGMARFEKLFDDDLNGLDMEIHERVVVDGRIGKLKTPLVHEDFKGLEAYITRHNKYSTWEAKVRHHYLTTGRYGEQTIKPRLFGNSQERRRFLKALIIRLPFEPQIWFIYHYLLRLGFLEGRPGLIASQIRAAYIAQARAKIYELRLNTPSRLEHHHHHH” reads “failed”.

With “MGATVPQRKALVLKASRILLSEKPLPERLQAFLEALLEGPFPIRSGKLYLRKGEGLRLVAQLGGEAGGEEVALSLEGGGRALGRLSLRLAPAASLAPEDRLALEEAAGILALALLRERAERAERVLRRAGECATQAAGEGDLLHKVCALLVEEGYALAWVGEARPTGEVVPREAAGAVGYLEGIRVRWDEAPEGQGPTGRALRSGRPQVLRSVEEDPRYAPWRERAQVFGFASSAAFPLRVEGRVWGSLNVYAPEEDAFDEEEVRLLEDLARLIGHALDRLRALERLRFLAYHDPLTGLPNRRRLEEDFRLLRGRWALCRLDLVDLYEVNEAYGREAGDALLARTSRRLQALLPREGRLYRLEGGEFLALLPGGAKEAEAFGQALGEALEAPLDLGEGRAFRVRVRAGVALFPDDANTLSELLRRADQALREAKKAGKRWTFYSLGLGEAVRERREVLAGLEKALAEGELRLYGQPIVDLATGRPAGVEVLLRWARGEEVVPASRFIPVAEEAGLIPELDLYVLRALAQMTTALPLHVNLSPQTLLDERLLLGLAPLKGRNLRLELTEHALASPGAEARLKELSCMGFPVVLDDFGQGYASLRLLVGLPFSMAKVDRGFVGGIGLDPKAEAALKAVLALSRELEIALVAEGVEREDQWAWLRSVGYSLGQGYLWGRPAPLEEVLYP”, the protein production entry was “failed”.

Regarding “MGCCYSLSSTVDPVQDHTTDASSEPRNGGGEDPPLTKFSFSALKTATNHFSPENIVSDQTSDVVFKGRLQNGGFVAIKRFNNMAWSDPKLFLEEAQRVGKLRHKRLVNLIGYCCDGDKRFLVADFMANDTLAKRLFQRKYQTMDWSIRLRVAYFVAEALDYCNTAGFASYNNLSAYKVLFDEDGDACLSCFGLMKEINNDQITTGSVNPENVIYRFGTVLVNLLSGKQIPPSHAPEMIHRKNVFKLMDPYLKGKFSIDEANVVYKLASQCLKYEGQESPNTKEIVATLETLQTRTEAPSYEVVEMTNQEKDASSSSNLSPLGEACLRMDLASIHSILVLAGYDDDKDIIELSFEEWIQEVKELQDVRRNGDRAFVEQDFKTAIACYSQFVEERSLVYPSVYARRSLSYLFCDEPEKALLDGMHAQGVFPDWPTAFYLQSVALAKLDMNTDSADTLKEAALLEVKK”, the protein production result is listed as “failed”.

As for “MGDPAPARSLDDIDLSALRDPAGIFELVEVVGNGTYGQVYKGRHVKTGQLAAIKVMDVTEDEEEEIKQEINMLKKYSHHRNIATYYGAFIKKSPPGNDDQLWLVMEFCGAGSVTDLVKNTKGNALKEDCIAYICREILRGLAHLHAHKVIHRDIKGQNVLLTENAEVKLVDFGVSAQLDRTVGRRNTFIGTPYWMAPEVIACDENPDATYDYRSDIWSLGITAIEMAEGAPPLCDMHPMRALFLIPRNPPPRLKSKKWSKKFIDFIDTCLIKTYLSRPPTEQLLKFPFIRDQPTERQVRIQLKDHIDRSRKKRGEKEETEYEYSGSEEEDDSHGEEGEPSSIMNVPGESTLRREFLRLQQENKSNSEALKQQQQLQQQQQRDPEAHIKHLLHQRQRRIEEQKEERRRVEEQQRREREQRKLQEKEQQRRLEDMQALRREEERRQAEREQEYKRKQLEEQRQSERLQRQLQQEHAYLKSLQQQQQQQQLQKQQQQQLLPGDRKPLYHYGRGMNPADKPAWAREVEERTRMNKQQNSPLAKSKPGSTGPEPPIPQASPGPPGPLSQTPPMQRPVEPQEGPHKSLVAHRVPLKPYAAPVPRSQSLQDQPTRNLAAFPASHDPDPAIPAPTATPSARGAVIRQNSDPTSEGPGPSPNPPAWVRPDNEAPPKVPQRTSSIATALNTSGAGGSRPAQAVRARPRSNSAWQIYLQRRAERGTPKPPGPPAQPPGPPNASSNPDLRRSDPGWERSDSVLPASHGHLPQAGSLERNRVGVSSKPDSSPVLSPGNKAKPDDHRSRPGRPADFVLLKERTLDEAPRPPKKAMDYSSSSEEVESSEDDEEEGEGGPAEGSRDTPGGRSDGDTDSVSTMVVHDVEEITGTQPPYGGGTMVVQRTPEEERNLLHADSNGYTNLPDVVQPSHSPTENSKGQSPPSKDGSGDYQSRGLVKAPGKSSFTMFVDLGIYQPGGSGDSIPITALVGGEGTRLDQLQYDVRKGSVVNVNPTNTRAHSETPEIRKYKKRFNSEILCAALWGVNLLVGTENGLMLLDRSGQGKVYGLIGRRRFQQMDVLEGLNLLITISGKRNKLRVYYLSWLRNKILHNDPEVEKKQGWTTVGDMEGCGHYRVVKYERIKFLVIALKSSVEVYAWAPKPYHKFMAFKSFADLPHRPLLVDLTVEEGQRLKVIYGSSAGFHAVDVDSGNSYDIYIPVHIQSQITPHAIIFLPNTDGMEMLLCYEDEGVYVNTYGRIIKDVVLQWGEMPTSVAYICSNQIMGWGEKAIEIRSVETGHLDGVFMHKRAQRLKFLCERNDKVFFASVRSGGSSQVYFMTLNRNCIMNW”, the protein production entry is listed as “failed”. Then “MGDPQVNDTLAPSARHEGDALASAVAKVKRHVLPLFVIMFIVNYLDRVNIGFVRPHLESDLGISAAAYGFGAGLFFIGYALFEVPSNMLLQKVGARLWLTRIMFTWGLVATAMAFVQNETQFYVLRFLLGVAEAGFFPGVIYYFTRWLPAAERGKAIAIFLSGSALASLISGPLAGALMQIQGLGLHGWQWMLFIEGMASVALCFFVFFWLDSKPQDAKWLSKAEQDALVATIDREQQAREAIGAVRPSAWNLLKDRQIVLFCLIYFCIQLTIYAATFWLPSIIKRMGDLSDMQVGFFNSIPWLISILAMYAFAAGSARWKFQQAWVAGALLVAATGMFMSTTGGPVFAFVAVCFAAIGFKSASSLFWPIPQGYLDARIAAAVIALINSVGNLGGFVAPTTFGLLEQQTGSIQGGLYGLAVTSVLAAIAIFFVRTRPKGAPSDDLKAPSALGQTH”, with “failed”; and “MGDSHDVCRQLLPRAIFGINGKVENGVRQHPVTGSIIFALGNKIGIADYKKNTQEFVAGHTNTISCLDLSKSGKYMASGQINHMGFRGYVIIWNYDQRKEIARHDLHKVSVQAICFTAQDRCVVSIGGVDDGSVIVFDMEAFSPICQTPASRAISGNALTVRPLHNNPYFFVTAGDRHLRLWSILREEKKLYVQDVLMASKTRVFYCARINKTDEFAYLGTGTGDIVKIVLNCCDRDHVSKQGSTSCILGAFGTHNPRKPTGRDCNRYVNGVRALYVLEGGRLLIGAGNGDIELVEERTDVPLINFRDYPGPTWPYLRTLKKTHVSGRISSFVRSKTDMFYICTDTNEIYGLNIKTWVLKLLRTCHTKSVYCITFPKNYSGVFATSGKECIRIWSSGRKQELLRIMVYNFNCACVRFTHDGTSIVSVWNDGIIRAFTPITGRLIYAIPNAHNKGCSALAVASSGRLIVTGGIEGQVRVWKIDPYRQDLVGVLKDHSGPITSLDINYLDTEVISACTDGSCVIWDIKRMTRKQVVTANTQFMSASYFPTGVQVITCGSDGRIIYWMVYNGALIRELTASKKSSVNCLAINETGDYFITVGSDLQVKLWDYNSGAVVGIGSEHASSVISCAYSPCMTMFVTGSTDGSLIIWDVPRDFWGRPNPPDVTKYSLPKTSSKTRMSDVPSRVNSGTNLKTTKGENIDGLLKATPKDDLCCVECPPCAKKDTKGVDPYAECGIVPDVRKC”, with “failed”.

Consider “MGEEEMPVHPDLEAFIESIPWHRHLGLKVLALHPGHARLVIPFQAGFTGNAARGALHGGIIASLADSCGNAALWTHFGPDDRIATINIGVDYFRPAPLADLMAEAEVRLLGNRIGNVHVRLAPLAEPSQTVAEGRTVCYVKRMSLEHHHHHH”, for which the protein production result was “failed”.
